In patent US20240239894A1, “THERAPEUTIC BINDING MOLECULES” (MedImmune Limited, priority 2020, published 2024) one finds EC50 (read off the curve) and Geometric Mean : Comp-APC-A data, which are given here for one molecule.

Experiment [1] concerns the target T1, Human B7-H4-Fc (Human B7H4 ECD, Fc_6His) (human).
T1 sequence (Q7Z7D3 whole entry, looked up): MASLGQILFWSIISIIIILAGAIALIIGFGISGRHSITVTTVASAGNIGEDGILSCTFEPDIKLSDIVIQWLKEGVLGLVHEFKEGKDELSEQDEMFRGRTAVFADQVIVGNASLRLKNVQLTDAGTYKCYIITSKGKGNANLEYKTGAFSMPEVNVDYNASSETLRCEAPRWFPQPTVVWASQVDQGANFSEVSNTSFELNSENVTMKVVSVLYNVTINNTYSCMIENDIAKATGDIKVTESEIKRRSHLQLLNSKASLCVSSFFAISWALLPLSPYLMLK
The experiment in a line: ELISA on coated human B7H4/Fc, absorbance 450 nm, [IgG] 0.006 to 100 nM. Background: ELISA stands for enzyme-linked immunosorbent assay.

The target of experiment [2] is human B7-H4 on cells (human) (UniProt Q7Z7D3). The experiment in a line: flow cytometry, AF647-labelled antibody at 156 ng/ml, HT29 cells expressing hB7-H4.

B1: 1D11 (Genentech anti-B7-H4 mAb) (antibody, from another filing, V domains shown)
VH: QVQLQQSGAELVRPGTSVKMSCKASGYTFTSYWIGWAKQRPGHGFEWIGDIYPGGGYTNYNEKFKGKATLTADKSSSTAYMQFSSLTSEDSAIYYCARLDGSSYRGAMDSWGQGTSITVSS
VL: DIQMTQSPSSLSASLGGKVTITCKASQGFNKYVAWYQHKPGQCPRLLIHYTSTLQPGIPARFSGSGSGRDYSFSISNLEPEDSATYFCLQYGNLLYAFGGGTKLEIKR
A word on the EC50 (read off the curve): it is the concentration at which the effect is half-maximal. High values mean lower potency in that assay, low ones higher potency in that assay. The molecule B1 yielded an EC50 (read off the curve) in experiment [1] of 5 nM. In experiment [2], this molecule displayed a Geometric Mean : Comp-APC-A of 1200.
